Values quoted from earlier work in patent US11535641B2, “Method for preparing GOS having reduced allergenicity” (FRIESLANDCAMPINA NEDERLAND B.V., priority 2017, dated 2022).
Read-outs that look alike come from different tables or passages of the source.

B1: C. terrestris M2 (mutant strain enzyme 1): β-galactosidase with N-terminal 130 residues of wild-type deleted, SEQ ID NO: 2 (protein, listed as Cryptococcus terrestris)
chain: ATTNQDAITPTATGPVGGQGTPAVNFTDYSSSSLEQFWNDWVGEVEEPPFAYVPEPPNPYPLPNAPPPIYPEYYTKRPKDILPDYKFPKDFLFGWATAAQQWEGAVKADGKGPSIWDWASRFPGFIADNTTSDVGDLGYYLYKEDLARIAALGANVYSFSMFWTRIFPFGKADSPVNQAGIDFYHDLIDYSWSLGIEPVVTLFHWDTPLALQLEYGGFASERIIDDYVNYAETVFKAYNGSVHKWVTFNEPVVFCSQMAAPVNTTLPPNLNSTIYPYTCSYHLVLAHAKTVKRFRELNIQGQIAFKSDNFVGIPWREGNQEDIDAVERHQAYQIGIFAEPIYNTGDWPDIVKNDLSPDILPRFTDDEIAMIKCTADFFPIDGYRDGYVQAVPGGVEACVANISNPLWPACNQVNFYDSTPAGWAIGTFGNWPTTPWLQNTWQFVRPFLADLAKRYPTEGGIYLSEFGFSEPFENDKTFIYQITQDSGRTAYFNSYLGEVLKGIVEDGIPIKGVFGWSMVDNFEWNSGLSTRFGVQYVDYNSPTRQRTFKRSALEMSEFWNAHRCSA
B2: WT strain enzyme: β-galactosidase from Cryptococcus terrestris strain MM13-F2171, SEQ ID NO: 1 (protein, listed as Cryptococcus terrestris)
chain: MIPASALLAAVPLLAQQVSAGILRRQNAAGSDSAAPDSIADASTGVVSSIATEAVSSGATGLVASVAMSFASSMATPTATVTGLSSETGAPSNTPMASASGSVPTTTSAVGSGDFDWVQTDGLPTITTTLATTNQDAITPTATGPVGGQGTPAVNFTDYSSSSLEQFWNDWVGEVEEPPFAYVPEPPNPYPLPNAPPPIYPEYYTKRPKDILPDYKFPKDFLFGWATAAQQWEGAVKADGKGPSIWDWASRFPGFIADNTTSDVGDLGYYLYKEDLARIAALGANVYSFSMFWTRIFPFGKADSPVNQAGIDFYHDLIDYSWSLGIEPVVTLFHWDTPLALQLEYGGFASERIIDDYVNYAETVFKAYNGSVHKWVTFNEPVVFCSQMAAPVNTTLPPNLNSTIYPYTCSYHLVLAHAKTVKRFRELNIQGQIAFKSDNFVGIPWREGNQEDIDAVERHQAYQIGIFAEPIYNTGDWPDIVKNDLSPDILPRFTDDEIAMIKCTADFFPIDGYRDGYVQAVPGGVEACVANISNPLWPACNQVNFYDSTPAGWAIGTFGNWPTTPWLQNTWQFVRPFLADLAKRYPTEGGIYLSEFGFSEPFENDKTFIYQITQDSGRTAYFNSYLGEVLKGIVEDGIPIKGVFGWSMVDNFEWNSGLSTRFGVQYVDYNSPTRQRTFKRSALEMSEFWNAHRCSA
B3: C. terrestris M6 (mutant strain enzyme 3): β-galactosidase with N-terminal 141 residues of wild-type deleted, SEQ ID NO: 4 (protein, listed as Cryptococcus terrestris)
chain: ATGPVGGQGTPAVNFTDYSSSSLEQFWNDWVGEVEEPPFAYVPEPPNPYPLPNAPPPIYPEYYTKRPKDILPDYKFPKDFLFGWATAAQQWEGAVKADGKGPSIWDWASRFPGFIADNTTSDVGDLGYYLYKEDLARIAALGANVYSFSMFWTRIFPFGKADSPVNQAGIDFYHDLIDYSWSLGIEPVVTLFHWDTPLALQLEYGGFASERIIDDYVNYAETVFKAYNGSVHKWVTFNEPVVFCSQMAAPVNTTLPPNLNSTIYPYTCSYHLVLAHAKTVKRFRELNIQGQIAFKSDNFVGIPWREGNQEDIDAVERHQAYQIGIFAEPIYNTGDWPDIVKNDLSPDILPRFTDDEIAMIKCTADFFPIDGYRDGYVQAVPGGVEACVANISNPLWPACNQVNFYDSTPAGWAIGTFGNWPTTPWLQNTWQFVRPFLADLAKRYPTEGGIYLSEFGFSEPFENDKTFIYQITQDSGRTAYFNSYLGEVLKGIVEDGIPIKGVFGWSMVDNFEWNSGLSTRFGVQYVDYNSPTRQRTFKRSALEMSEFWNAHRCSA

Tests used:
[1] = for Ratio in GOS (%) DP2*: lactose not included; for Amount of GOS (content of GOS in total sugar): 24 hours, 53% lactose, 1 U per g lactose
[2] = acetate buffer (pH 6.0)
[3] = GOS yield about 50% (65° C., 24 hours)
[4] = comparison of enzymes, GOS yield about 50%
[5] = comparison of enzymes, typical results when GOS yield about 50% (65° C., 24 hours)

| Molecule | Ratio in GOS (%) DP2* [1, 4] [%] | Ratio in GOS (%) DP3 [1, 5] [%] | Ratio in GOS (%) ≥ DP4 [1, 5] [%] | optimum temperature [2] [°C] | Ratio in DP3 (%) β1-2, β1-3 [3] [%] | Ratio in DP3 (%) β1-4 [3] [%] | Ratio in DP3 (%) β1-6 [3] [%] | Ratio in GOS (%) DP3 ([1]; reaction temperature 65° C.) [%] | Ratio in GOS (%) ≥ DP4 ([1]; reaction temperature 65° C.) [%] | Amount of GOS (content of GOS in total sugar) ([1]; reaction temperature 65° C.) [%] | Ratio in GOS (%) DP2* ([1]; reaction temperature 65° C.) [%] | Ratio in GOS (%) DP3 ([1]; reaction temperature 70° C.) [%] | Ratio in GOS (%) ≥ DP4 ([1]; reaction temperature 70° C.) [%] | Amount of GOS (content of GOS in total sugar) ([1]; reaction temperature 70° C.) [%] | Ratio in GOS (%) DP2* ([1]; reaction temperature 70° C.) [%] | other results |
| --- | --- | --- | --- | --- | --- | --- | --- | --- | --- | --- | --- | --- | --- | --- | --- | --- |
| B1 | 25.3 | 60.5 | 14.2 | 70 | 20.7 | 79.0 | 0.4 |  |  |  |  |  |  |  |  |  |
| B2 | 25.8 | 57.5 | 16.7 | 70 | 22.1 | 76.3 | 1.5 | 51.8 | 22.1 | 53.4 | 26.1 | 47.4 | 25.8 | 54.2 | 26.8 | enzyme activity retained ([2]; within the stable temperature range, 30 minutes): ≥ 80% |
| B3 | 25.8 | 54.2 | 19.9 | 70 | 22.1 | 75.2 | 2.7 | 53.4 | 20.9 | 53.2 | 26.0 | 49.2 | 24.5 | 53.9 | 26.3 | Ratio in GOS (%) DP3 ([1]; reaction temperature 50° C.): 68.9%; Ratio in GOS (%) ≥ DP4 ([1]; reaction temperature 50° C.): 6.4%; Amount of GOS (content of GOS in total sugar) ([1]; reaction temperature 50° C.): 46.9%; Ratio in GOS (%) DP2* ([1]; reaction temperature 50° C.): 24.7%; Ratio in GOS (%) DP3 ([1]; reaction temperature 60° C.): 58.2%; Ratio in GOS (%) ≥ DP4 ([1]; reaction temperature 60° C.): 16.1%; Amount of GOS (content of GOS in total sugar) ([1]; reaction temperature 60° C.): 52.1%; Ratio in GOS (%) DP2* ([1]; reaction temperature 60° C.): 25.8% |
